From patent publication US20160083733

Tests used:
[1] = molecular target: GST-PDX1 WT (bacterially purified), P52946
[2] = molecular target: GST-PDX1 T152A (bacterially purified), P52946
[3] = molecular target: GST-PDX1 T126A (bacterially purified), P52946
[4] = molecular target: GST-PDX1 T231A (bacterially purified), P52946
[5] = molecular target: Purified recombinant human PDX-1 (Abcam), P52945
[6] = molecular target: GST-PDX1 T11A (bacterially purified), P52946
[7] = molecular target: GST-PDX1 T214A (bacterially purified), P52946
[8] = molecular target: GST-PDX1 T155A (bacterially purified), P52946
GST-PDX1 T155A (bacterially purified), P52946, sequence (P52946 whole entry T155A, looked up): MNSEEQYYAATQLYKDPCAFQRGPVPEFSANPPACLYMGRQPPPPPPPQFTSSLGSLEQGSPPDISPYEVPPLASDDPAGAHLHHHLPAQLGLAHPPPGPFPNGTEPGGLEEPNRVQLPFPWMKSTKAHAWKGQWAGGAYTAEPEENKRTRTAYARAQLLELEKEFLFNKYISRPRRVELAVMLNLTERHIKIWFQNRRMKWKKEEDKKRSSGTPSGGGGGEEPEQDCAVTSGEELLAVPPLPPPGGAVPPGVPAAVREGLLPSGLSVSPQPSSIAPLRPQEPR

GST-PDX1 WT (bacterially purified), P52946, sequence (P52946 whole entry): as the sequence (P52946 whole entry T155A, looked up) above, with A155T counted along it
Purified recombinant human PDX-1 (Abcam), P52945, sequence (P52945 whole entry): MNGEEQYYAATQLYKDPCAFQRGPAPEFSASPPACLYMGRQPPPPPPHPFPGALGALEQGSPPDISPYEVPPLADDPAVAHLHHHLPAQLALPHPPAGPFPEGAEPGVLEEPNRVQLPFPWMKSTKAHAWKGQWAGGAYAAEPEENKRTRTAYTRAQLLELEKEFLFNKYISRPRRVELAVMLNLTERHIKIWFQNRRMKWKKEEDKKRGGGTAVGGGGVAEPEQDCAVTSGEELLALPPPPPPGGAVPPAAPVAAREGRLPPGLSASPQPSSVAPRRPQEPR
GST-PDX1 T214A (bacterially purified), P52946, sequence (P52946 whole entry T214A, looked up): as the sequence (P52946 whole entry T155A, looked up) above, with A155T, T214A counted along it
GST-PDX1 T152A (bacterially purified), P52946, sequence (P52946 whole entry T152A, looked up): as the sequence (P52946 whole entry T155A, looked up) above, with T152A, A155T counted along it
GST-PDX1 T11A (bacterially purified), P52946, sequence (P52946 whole entry T11A, looked up): as the sequence (P52946 whole entry T155A, looked up) above, with T11A, A155T counted along it
GST-PDX1 T231A (bacterially purified), P52946, sequence (P52946 whole entry T231A, looked up): as the sequence (P52946 whole entry T155A, looked up) above, with A155T, T231A counted along it
GST-PDX1 T126A (bacterially purified), P52946, sequence (P52946 whole entry T126A, looked up): as the sequence (P52946 whole entry T155A, looked up) above, with T126A, A155T counted along it

B1: Purified human active MST1 (Upstate Biotechnology) (protein)
chain: METVQLRNPPRRQLKKLDEDSLTKQPEEVFDVLEKLGEGSYGSVYKAIHKETGQIVAIKQVPVESDLQEIIKEISIMQQCDSPHVVKYYGSYFKNTDLWIVMEYCGAGSVSDIIRLRNKTLTEDEIATILQSTLKGLEYLHFMRKIHRDIKAGNILLNTEGHAKLADFGVAGQLTDTMAKRNTVIGTPFWMAPEVIQEIGYNCVADIWSLGITAIEMAEGKPPYADIHPMRAIFMIPTNPPPTFRKPELWSDNFTDFVKQCLVKSPEQRATATQLLQHPFVRSAKGVSILRDLINEAMDVKLKRQESQQREVDQDDEENSEEDEMDSGTMVRAVGDEMGTVRVASTMTDGANTMIEHDDTLPSQLGTMVINAEDEEEEGTMKRRDETMQPAKPSFLEYFEQKEKENQINSFGKSVPGPLKNSSDWKIPQDGDYEFLKSWTVEDLQKRLLALDPMMEQEIEEIRQKYQSKRQPILDAIEAKKRRQQNF
[1]
  in vitro kinase assay, pan-phospho threonine western blot: With the exception of T11A, PDX1-WT and other mutants were efficiently threonine phosphorylated
[2]
  in vitro kinase assay, pan-phospho threonine western blot: With the exception of T11A, PDX1-WT and other mutants were efficiently threonine phosphorylated
[3]
  in vitro kinase assay, pan-phospho threonine western blot: With the exception of T11A, PDX1-WT and other mutants were efficiently threonine phosphorylated
[4]
  in vitro kinase assay, pan-phospho threonine western blot: With the exception of T11A, PDX1-WT and other mutants were efficiently threonine phosphorylated
[5]
  in vitro kinase assay (32P autoradiography; western blot with phospho-specific antibody): In vitro kinase assays showed that MST1 efficiently phosphorylated PDX1
[6]
  in vitro kinase assay, pan-phospho threonine western blot: With the exception of T11A, PDX1-WT and other mutants were efficiently threonine phosphorylated
[7]
  in vitro kinase assay, pan-phospho threonine western blot: With the exception of T11A, PDX1-WT and other mutants were efficiently threonine phosphorylated
[8]
  in vitro kinase assay, pan-phospho threonine western blot: With the exception of T11A, PDX1-WT and other mutants were efficiently threonine phosphorylated
